{"source": "patent US20220332804A1", "about": "(CSL INNOVATION, published 2022)", "assay_in_all_cases": "SPR, antibody captured, C2 as analyte;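 also: biacore SPR at 37 °C, anti-C2 mAbs captured via goat anti-human IgG on CM5 chips, double-referenced sensorgrams fit to a 1:1 kinetic or steady-state model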", "key": {"human C2 E433A": {"molecular_target": "T1, human C2 E433A (human, UniProt P06681 21-752)", "T1 sequence": "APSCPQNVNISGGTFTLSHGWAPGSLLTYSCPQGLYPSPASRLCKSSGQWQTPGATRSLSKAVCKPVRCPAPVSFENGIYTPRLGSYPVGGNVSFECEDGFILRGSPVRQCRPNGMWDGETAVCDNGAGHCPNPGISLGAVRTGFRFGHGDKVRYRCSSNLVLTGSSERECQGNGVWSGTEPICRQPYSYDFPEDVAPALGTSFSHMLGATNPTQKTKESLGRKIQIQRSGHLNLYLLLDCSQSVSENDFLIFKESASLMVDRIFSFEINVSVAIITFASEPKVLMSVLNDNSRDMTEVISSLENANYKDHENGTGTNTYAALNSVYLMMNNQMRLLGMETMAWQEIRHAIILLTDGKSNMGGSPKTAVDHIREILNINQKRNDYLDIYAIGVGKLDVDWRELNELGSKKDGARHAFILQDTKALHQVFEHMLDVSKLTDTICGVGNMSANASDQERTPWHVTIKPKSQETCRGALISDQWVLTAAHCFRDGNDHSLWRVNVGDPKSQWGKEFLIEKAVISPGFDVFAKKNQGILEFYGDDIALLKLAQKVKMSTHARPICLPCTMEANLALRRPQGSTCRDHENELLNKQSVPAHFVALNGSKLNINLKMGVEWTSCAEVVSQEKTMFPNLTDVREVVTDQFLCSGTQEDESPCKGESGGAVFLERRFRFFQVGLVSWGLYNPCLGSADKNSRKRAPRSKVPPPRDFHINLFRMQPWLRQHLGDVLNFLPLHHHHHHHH"}, "human C2 T483A": {"molecular_target": "T2, human C2 T483A (human, UniProt P06681 21-752)", "T2 sequence": "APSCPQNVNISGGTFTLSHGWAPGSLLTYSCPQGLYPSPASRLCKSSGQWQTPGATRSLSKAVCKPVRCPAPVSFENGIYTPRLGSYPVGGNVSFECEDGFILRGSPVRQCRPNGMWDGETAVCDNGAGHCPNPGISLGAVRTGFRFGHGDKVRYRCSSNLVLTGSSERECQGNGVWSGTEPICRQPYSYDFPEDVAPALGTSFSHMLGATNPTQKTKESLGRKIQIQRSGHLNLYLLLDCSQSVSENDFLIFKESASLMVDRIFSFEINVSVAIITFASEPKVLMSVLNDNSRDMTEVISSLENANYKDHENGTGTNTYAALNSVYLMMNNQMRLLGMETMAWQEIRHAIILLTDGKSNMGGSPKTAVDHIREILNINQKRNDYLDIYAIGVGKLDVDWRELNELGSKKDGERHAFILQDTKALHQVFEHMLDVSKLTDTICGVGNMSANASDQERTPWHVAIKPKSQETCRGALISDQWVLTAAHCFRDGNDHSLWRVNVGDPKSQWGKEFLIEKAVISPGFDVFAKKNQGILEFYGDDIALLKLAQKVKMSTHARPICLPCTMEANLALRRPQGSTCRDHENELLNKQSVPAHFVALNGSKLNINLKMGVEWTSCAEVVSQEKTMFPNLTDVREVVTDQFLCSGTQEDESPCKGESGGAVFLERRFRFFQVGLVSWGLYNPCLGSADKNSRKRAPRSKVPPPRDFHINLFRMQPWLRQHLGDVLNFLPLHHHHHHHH"}, "human C2 P704A": {"molecular_target": "T3, human C2 P704A (human, UniProt P06681 21-752)", "T3 sequence": "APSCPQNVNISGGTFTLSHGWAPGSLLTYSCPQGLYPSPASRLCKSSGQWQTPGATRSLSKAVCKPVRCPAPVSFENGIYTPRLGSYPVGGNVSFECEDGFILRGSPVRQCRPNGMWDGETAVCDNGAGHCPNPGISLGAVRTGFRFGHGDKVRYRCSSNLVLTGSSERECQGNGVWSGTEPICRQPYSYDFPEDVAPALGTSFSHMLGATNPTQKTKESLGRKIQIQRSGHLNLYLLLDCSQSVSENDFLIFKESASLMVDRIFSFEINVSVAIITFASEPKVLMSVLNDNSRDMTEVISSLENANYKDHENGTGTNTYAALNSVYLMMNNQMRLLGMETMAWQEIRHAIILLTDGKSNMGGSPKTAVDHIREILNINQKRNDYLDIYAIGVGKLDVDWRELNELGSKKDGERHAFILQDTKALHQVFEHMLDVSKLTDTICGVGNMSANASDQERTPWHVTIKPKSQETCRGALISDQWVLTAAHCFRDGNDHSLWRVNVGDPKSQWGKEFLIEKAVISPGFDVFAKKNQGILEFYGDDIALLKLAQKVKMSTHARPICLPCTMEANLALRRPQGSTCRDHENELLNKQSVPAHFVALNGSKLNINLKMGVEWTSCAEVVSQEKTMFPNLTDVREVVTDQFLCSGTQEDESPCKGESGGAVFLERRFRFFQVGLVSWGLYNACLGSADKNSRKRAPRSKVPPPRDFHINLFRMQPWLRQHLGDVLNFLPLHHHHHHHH"}, "human C2 I438A": {"molecular_target": "T4, human C2 I438A (human, UniProt P06681 21-752)", "T4 sequence": "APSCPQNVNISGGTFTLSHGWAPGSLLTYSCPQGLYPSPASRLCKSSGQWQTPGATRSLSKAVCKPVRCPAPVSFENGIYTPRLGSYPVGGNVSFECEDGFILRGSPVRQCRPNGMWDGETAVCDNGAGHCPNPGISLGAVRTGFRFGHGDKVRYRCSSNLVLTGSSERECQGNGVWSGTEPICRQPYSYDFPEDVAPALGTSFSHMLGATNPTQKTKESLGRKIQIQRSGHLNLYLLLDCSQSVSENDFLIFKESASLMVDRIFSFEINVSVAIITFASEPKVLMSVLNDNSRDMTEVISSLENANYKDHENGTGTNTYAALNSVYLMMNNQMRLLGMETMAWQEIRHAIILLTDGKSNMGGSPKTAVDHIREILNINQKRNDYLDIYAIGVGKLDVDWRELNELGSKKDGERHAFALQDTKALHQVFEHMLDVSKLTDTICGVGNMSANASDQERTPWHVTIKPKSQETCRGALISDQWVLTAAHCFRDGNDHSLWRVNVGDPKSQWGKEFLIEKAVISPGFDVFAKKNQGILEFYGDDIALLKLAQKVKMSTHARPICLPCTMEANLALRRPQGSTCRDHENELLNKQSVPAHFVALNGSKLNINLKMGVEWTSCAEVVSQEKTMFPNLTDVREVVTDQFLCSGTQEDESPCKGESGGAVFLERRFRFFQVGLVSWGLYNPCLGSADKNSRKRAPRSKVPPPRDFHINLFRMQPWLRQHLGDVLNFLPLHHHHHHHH"}}, "data": [{"binder": "RF16-226 (antibody, human IgG4 S228P, lambda, pH-dependent anti-C2 antibody from a phage display library; also called WT) heavy: not shown light: SYELTQPPSVSVSPGQTARITCSGDALTSKYVAWYQQKSGLAPLLVIYEDTRRPSGIPAKFSGSSSGSVATLTISGAHGDDEADYYCYSTDASGHQRVFGGGTKLTVLSQPKAAPSVTLFPPSSEELQANKATLVCLISDFYPGAVTVAWKADGSPVKAGVETTKPSKQSNNKYAASSYLSLTPEQWKSHRSYSCQVTHEGSTVEKTVAPTECS", "values": [{"measurement": "Kd", "setting": "human C2 E433A", "value": 2.6, "unit": "nM"}, {"measurement": "Kd", "setting": "human C2 T483A", "value": 5.5, "unit": "nM"}, {"measurement": "Kd", "setting": "human C2 P704A", "value": 120, "unit": "nM"}, {"measurement": "Kd", "setting": "human C2 I438A", "value": 8.7, "unit": "nM"}]}]}
